The text below walks through data of paper PMC11283454 (Nature Communications, 2024).

In general, Kd refers to a measure of binding affinity in units of concentration.

The series concerns the molecule itself. Put plainly: MST.

B1: human ATE1 isoform 2 (arginyl-tRNA-protein transferase 1), recombinant (enzyme, UniProt O95260-2 1-518, looked up)
chain: MAFWAGGSPSVVDYFPSEDFYRCGYCKNESGSRSNGMWAHSMTVQDYQDLIDRGWRRSGKYVYKPVMNQTCCPQYTIRCRPLQFQPSKSHKKVLKKMLKFLAKGEVPKGSCEDEPMDSTMDDAVAGDFALINKLDIQCDLKTLSDDIKESLESEGKNSKKEEPQELLQSQDFVGEKLGSGEPSHSVKVHTVPKPGKGADLSKPPCRKAKEIRKERKRLKLMQQNPAGELEGFQAQGHPPSLFPPKAKSNQPKSLEDLIFESLPENASHKLEVRLVPVSFEDPEFKSSFSQSFSLYVKYQVAIHQDPPDECGKTEFTRFLCSSPLEAETPPNGPDCGYGSFHQQYWLDGKIIAVGVIDILPNCVSSVYLYYDPDYSFLSLGVYSALREIAFTRQLHEKTSQLSYYYMGFYIHSCPKMKYKGQYRPSDLLCPETYVWVPIEQCLPSLENSKYCRFNQDPEAVDEDRSTEPDRLQVFHKRAIMPYGVYKKQQKDPSEEAAVLQYASLVGQKCSERMLLFRN
modifications: red Tris-NTA dye on the labelled copy in MST
As for B1, the Kd was found to be 8.5 µM.
